Laboratory results: patent US20220064312A1 (SHIONOGI, published 2022)
Where two headings read alike, the source gives them in different places. Blank lines part the entries; values can stand above or below the binder they belong to.

Legend:
human CCR8 [1] = target: T1, human CCR8 (human, UniProt P51685 1-355); experiment: cell-based or functional assay
human CCR8 [2] = target: T1, human CCR8; experiment: cell-based or functional assay; remark: listed apart in the source
loop2 hCCR4-hCCR8 = target: T2, loop2 hCCR4-hCCR8 (human, UniProt P51685 1-355); experiment: flow cytometry, transfected Expi293 cells; Δ = significantly reduced vs hCCR8
T2 construct: chimera on Expi293 cells; hCCR8 ranges derived; also called loop2-human CCR4-substituted human CCR8

loop1 hCCR4-hCCR8 = target: T3, loop1 hCCR4-hCCR8 (human, UniProt P51685 1-355); experiment: as above
T3 construct: chimera on Expi293 cells; hCCR8 ranges derived; also called loop 1-human CCR4-substituted human CCR8

mouse CCR8 = target: T4, mouse CCR8 (mouse, UniProt P56484 1-353); experiment: flow cytometry, transfected Expi293 cells
T4 construct: also called mCCR8
T4 sequence: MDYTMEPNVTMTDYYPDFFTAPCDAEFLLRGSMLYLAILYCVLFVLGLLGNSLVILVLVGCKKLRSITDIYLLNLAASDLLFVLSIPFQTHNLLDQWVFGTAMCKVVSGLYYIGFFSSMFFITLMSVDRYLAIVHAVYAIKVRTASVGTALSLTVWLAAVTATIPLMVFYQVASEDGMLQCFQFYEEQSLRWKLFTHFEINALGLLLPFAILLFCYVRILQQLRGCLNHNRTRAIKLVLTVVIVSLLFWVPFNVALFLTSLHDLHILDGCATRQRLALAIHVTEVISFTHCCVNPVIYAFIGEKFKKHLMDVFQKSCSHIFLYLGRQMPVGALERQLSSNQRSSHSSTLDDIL

N-ter hCCR4-hCCR8 = target: T5, N-ter hCCR4-hCCR8 (human); experiment: flow cytometry, transfected Expi293 cells
T5 construct: chimera on Expi293 cells; remaining hCCR8 ranges derived from the stated swapped ranges and the 355-residue length; also called N-terminal region human CCR4-substituted human CCR8
T5 chain: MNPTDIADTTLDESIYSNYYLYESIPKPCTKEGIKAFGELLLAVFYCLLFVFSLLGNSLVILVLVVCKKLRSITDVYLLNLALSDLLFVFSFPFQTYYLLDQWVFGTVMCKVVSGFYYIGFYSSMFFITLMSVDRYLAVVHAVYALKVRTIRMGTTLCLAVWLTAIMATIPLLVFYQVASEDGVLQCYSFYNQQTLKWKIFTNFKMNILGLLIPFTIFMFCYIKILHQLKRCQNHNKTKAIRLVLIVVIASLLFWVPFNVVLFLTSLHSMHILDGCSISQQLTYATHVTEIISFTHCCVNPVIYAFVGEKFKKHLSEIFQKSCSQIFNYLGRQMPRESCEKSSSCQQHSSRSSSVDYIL

hCCR8 (Y17A) = hCCR8 (Y17A) (human, UniProt P51685 1-355); experiment: flow cytometry, transfected Expi293 cells
Chain of hCCR8 (Y17A) (P51685 whole entry Y17A): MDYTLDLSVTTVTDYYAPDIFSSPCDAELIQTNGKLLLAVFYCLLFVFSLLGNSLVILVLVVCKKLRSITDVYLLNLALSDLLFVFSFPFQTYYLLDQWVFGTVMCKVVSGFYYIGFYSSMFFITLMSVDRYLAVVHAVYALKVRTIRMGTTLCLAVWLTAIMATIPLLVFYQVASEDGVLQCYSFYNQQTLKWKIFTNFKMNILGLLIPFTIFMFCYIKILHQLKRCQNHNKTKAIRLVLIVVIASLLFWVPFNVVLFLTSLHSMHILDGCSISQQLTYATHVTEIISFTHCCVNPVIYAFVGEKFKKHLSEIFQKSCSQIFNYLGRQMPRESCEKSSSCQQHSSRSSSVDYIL

human CCR4 = target: T6, human CCR4 (human, UniProt P51679 1-360); experiment: flow cytometry, transfected Expi293 cells
T6 construct: also called hCCR4
T6 sequence: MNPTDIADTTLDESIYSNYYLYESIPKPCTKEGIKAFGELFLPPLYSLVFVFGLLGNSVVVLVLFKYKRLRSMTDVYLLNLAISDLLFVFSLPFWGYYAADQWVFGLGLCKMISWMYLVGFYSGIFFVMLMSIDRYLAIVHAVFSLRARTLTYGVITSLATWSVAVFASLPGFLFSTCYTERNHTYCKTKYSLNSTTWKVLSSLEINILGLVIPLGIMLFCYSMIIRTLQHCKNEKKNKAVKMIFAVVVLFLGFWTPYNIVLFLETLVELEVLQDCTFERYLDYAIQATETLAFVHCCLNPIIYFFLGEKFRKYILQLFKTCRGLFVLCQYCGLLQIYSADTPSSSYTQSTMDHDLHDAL

human CCR8 [3] = target: T1, human CCR8; experiment: cell-based or functional assay; remark: listed apart in the source
human CCR8 [4] = target: T1, human CCR8; experiment: cell-based or functional assay; remark: listed apart in the source

T1 sequence (P51685 whole entry): as the sequence (P51685 whole entry Y17A) above, with A17Y counted along it

IC50 (nM), Ca2+ influx by 200 nM hCCL1 (human CCR8 [1]): 0.16 nM
B1: h10A11 (IGKV3-20/IGHV3-15 T94R) (antibody, V domains shown)
VH: EVQLVESGGALVKPGGSLRLSCAASGFTFSTYALYWVRQAPGKGLEWVGRIRSKSNNYATYYADSVKDRFTISRDDSKNTLYLQMNSLKTEDTAVYYCTRARFYYSDYGYAMDYWGQGTLVTVSS
VL: EIVLTQSPGTLSLSPGERATLSCRSSKSLLHSNGNTYLYWYQQKPGQAPRLLIYRMSNLASGIPDRFSGSGSGTDFTLTISRLEPEDFAVYYCMQHLEYPLTFGQGTKVEIKR

IC50 (nM), Ca2+ influx by 200 nM hCCL1 (human CCR8 [2]): 0.21 nM
B2: h10A11 IGKV3-20 N53Q, G29L/IGHV3-15 T94R (antibody, V domains shown)
VH: EVQLVESGGALVKPGGSLRLSCAASGFTFSTYALYWVRQAPGKGLEWVGRIRSKSNNYATYYADSVKDRFTISRDDSKNTLYLQMNSLKTEDTAVYYCTRARFYYSDYGYAMDYWGQGTLVTVSS
VL: EIVLTQSPGTLSLSPGERATLSCRSSKSLLHSNLNTYLYWYQQKPGQAPRLLIYRMSQLASGIPDRFSGSGSGTDFTLTISRLEPEDFAVYYCMQHLEYPLTFGQGTKVEIKR

IC50 (nM), Ca2+ influx by 200 nM hCCL1 (human CCR8 [1]): 0.16 nM
B3: h10A11 (IGKV1-39/IGHV3-73) (antibody, V domains shown)
VH: EVQLVESGGGLVQPGGSLKLSCAASGFAFNTYALYWVRQASGKGLEWVGRIRSKSNNYATYYADSVKDRFTISRDDSKNTAYLQMNSLKTEDTAVYYCTRARFYYSDYGYAMDYWGQGTLVTVSS
VL: DIQMTQSPSSLSASVGDRVTITCRSSKSLLHSNGNTYLYWYQQKPGKAPKLLIYRMSNLASGVPSRFSGSGSGTDFTLTISSLQPEDFATYYCMQHLEYPLTFGQGTKLEIKR

IC50 (nM), Ca2+ influx by 200 nM hCCL1 (human CCR8 [1]): 0.3 nM
B4: h10A11 (IGKV2-40/IGHV3-15 T94R) (antibody, V domains shown)
VH: EVQLVESGGALVKPGGSLRLSCAASGFTFSTYALYWVRQAPGKGLEWVGRIRSKSNNYATYYADSVKDRFTISRDDSKNTLYLQMNSLKTEDTAVYYCTRARFYYSDYGYAMDYWGQGTLVTVSS
VL: DIVMTQTPLSLPVTPGEPASISCRSSKSLLHSNGNTYLYWYLQKPGQSPQLLIYRMSNLASGVPDRFSGSGSGTDFTLKISRVEAEDVGVYYCMQHLEYPLTFGQGTKLEIKR

IC50 (nM), Ca2+ influx by 200 nM hCCL1 (human CCR8 [1]): 0.2 nM
B5: h10A11 (IGKV2-28/IGHV3-73) (antibody, V domains shown)
VH: EVQLVESGGGLVQPGGSLKLSCAASGFAFNTYALYWVRQASGKGLEWVGRIRSKSNNYATYYADSVKDRFTISRDDSKNTAYLQMNSLKTEDTAVYYCTRARFYYSDYGYAMDYWGQGTLVTVSS
VL: DIVMTQSPLSLPVTPGEPASISCRSSKSLLHSNGNTYLYWYLQKPGQSPQLLIYRMSNLASGVPDRFSGSGSGTDFTLKISRVEAEDVGVYYCMQHLEYPLTFGQGTKVEIKR

IC50 (nM), Ca2+ influx by 200 nM hCCL1 (human CCR8 [2]): 0.12 nM
B6: h10A11 IGKV4-1 N53Q, G29R/IGHV3-15 T94R (antibody, V domains shown)
VH: EVQLVESGGALVKPGGSLRLSCAASGFTFSTYALYWVRQAPGKGLEWVGRIRSKSNNYATYYADSVKDRFTISRDDSKNTLYLQMNSLKTEDTAVYYCTRARFYYSDYGYAMDYWGQGTLVTVSS
VL: DIVMTQSPDSLAVSLGERATINCRSSKSLLHSNRNTYLYWYQQKPGQPPKLLIYRMSQLASGVPDRFSGSGSGTDFTLTISSLQAEDVAVYYCMQHLEYPLTFGQGTKLEIKR

IC50 (nM), Ca2+ influx by 200 nM hCCL1 (human CCR8 [2]): 0.19 nM
B7: h10A11 IGKV3-20 N53Q, G29R/IGHV3-15 T94R (antibody, V domains shown)
VH: EVQLVESGGALVKPGGSLRLSCAASGFTFSTYALYWVRQAPGKGLEWVGRIRSKSNNYATYYADSVKDRFTISRDDSKNTLYLQMNSLKTEDTAVYYCTRARFYYSDYGYAMDYWGQGTLVTVSS
VL: EIVLTQSPGTLSLSPGERATLSCRSSKSLLHSNRNTYLYWYQQKPGQAPRLLIYRMSQLASGIPDRFSGSGSGTDFTLTISRLEPEDFAVYYCMQHLEYPLTFGQGTKVEIKR

IC50 (nM), Ca2+ influx by 200 nM hCCL1 (human CCR8 [1]): 0.2 nM
B8: h10A11 (IGKV1-39/IGHV3-15 T94R) (antibody, V domains shown)
VH: EVQLVESGGALVKPGGSLRLSCAASGFTFSTYALYWVRQAPGKGLEWVGRIRSKSNNYATYYADSVKDRFTISRDDSKNTLYLQMNSLKTEDTAVYYCTRARFYYSDYGYAMDYWGQGTLVTVSS
VL: DIQMTQSPSSLSASVGDRVTITCRSSKSLLHSNGNTYLYWYQQKPGKAPKLLIYRMSNLASGVPSRFSGSGSGTDFTLTISSLQPEDFATYYCMQHLEYPLTFGQGTKLEIKR

IC50 (nM), Ca2+ influx by 200 nM hCCL1 (human CCR8 [2]): 0.29 nM
B9: h10A11 IGKV3-20 N53Q, N28K/IGHV3-15 T94R (antibody, V domains shown)
VH: EVQLVESGGALVKPGGSLRLSCAASGFTFSTYALYWVRQAPGKGLEWVGRIRSKSNNYATYYADSVKDRFTISRDDSKNTLYLQMNSLKTEDTAVYYCTRARFYYSDYGYAMDYWGQGTLVTVSS
VL: EIVLTQSPGTLSLSPGERATLSCRSSKSLLHSKGNTYLYWYQQKPGQAPRLLIYRMSQLASGIPDRFSGSGSGTDFTLTISRLEPEDFAVYYCMQHLEYPLTFGQGTKVEIKR

IC50 (nM), Ca2+ influx by 200 nM hCCL1 (human CCR8 [1]): 0.21 nM
B10: h10A11 (IGKV2-40/IGHV3-73) (antibody, V domains shown)
VH: EVQLVESGGGLVQPGGSLKLSCAASGFAFNTYALYWVRQASGKGLEWVGRIRSKSNNYATYYADSVKDRFTISRDDSKNTAYLQMNSLKTEDTAVYYCTRARFYYSDYGYAMDYWGQGTLVTVSS
VL: DIVMTQTPLSLPVTPGEPASISCRSSKSLLHSNGNTYLYWYLQKPGQSPQLLIYRMSNLASGVPDRFSGSGSGTDFTLKISRVEAEDVGVYYCMQHLEYPLTFGQGTKLEIKR

IC50 (nM), Ca2+ influx by 200 nM hCCL1 (human CCR8 [1]): 0.7 nM
B11: h10A11 (IGKV1-16/IGHV3-15 T94R) (antibody, V domains shown)
VH: EVQLVESGGALVKPGGSLRLSCAASGFTFSTYALYWVRQAPGKGLEWVGRIRSKSNNYATYYADSVKDRFTISRDDSKNTLYLQMNSLKTEDTAVYYCTRARFYYSDYGYAMDYWGQGTLVTVSS
VL: DIQMTQSPSSLSASVGDRVTITCRSSKSLLHSNGNTYLYWFQQKPGKAPKSLIYRMSNLASGVPSRFSGSGSGTDFTLTISSLQPEDFATYYCMQHLEYPLTFGQGTKLEIKR

binding result (loop2 hCCR4-hCCR8): binds
binding result (loop1 hCCR4-hCCR8): binds
binding result (mouse CCR8): no binding
binding result (N-ter hCCR4-hCCR8): no binding
binding result (hCCR8 (Y17A)): no binding
binding result (human CCR4): no binding
Neutralizing Activity IC50 (nM), Ca2+ influx by 100 nM hCCL1 (human CCR8 [3]): 0.09 nM
B12: 27G1 (antibody, V domains shown)
VH: EVQLVESGGRLVQPKGSLKLSCAASGFAFNTYAMYWIRQAPGKGLEWVARIRSKSNNYATYYADSVKDRFTISRDDSQSMLYLQMNNLKTEDTAMYYCVRARFYYSDYGYAMDYWGQGTSVTVSS
VL: DIVMTQAAPSVPVTPGESVSISCRSSKSLLHSNGNTYLYWFLQRPGQSPQLLIYRMSNLASGVPDRFSGSGSGTAFTLRISRVEAEDVGVYYCMQHLEYPLTFGAGTKLELKR
notes: mouse hybridoma antibody

IC50 (nM), Ca2+ influx by 200 nM hCCL1 (human CCR8 [4]): 0.23 nM
IC50 (nM), Ca2+ influx by 200 nM hCCL1 (human CCR8 [1]): 0.23 nM
binding result (loop2 hCCR4-hCCR8): binds
binding result (loop1 hCCR4-hCCR8): binds
binding result (mouse CCR8): no binding
binding result (N-ter hCCR4-hCCR8): no binding
binding result (hCCR8 (Y17A)): no binding
binding result (human CCR4): no binding
Neutralizing Activity IC50 (nM), Ca2+ influx by 100 nM hCCL1 (human CCR8 [3]): 0.08 nM
B13: 10A11 (antibody, V domains shown)
VH: EVQLVESGGRLVQPKGSLKLSCAASGFAFNTYALYWIRQAPGKGLEWVARIRSKSNNYATYYADSVKDRFTISRDDSQSMLYLQMNNLKTEDTAMYYCVRARFYYSDYGYAMDYWGQGTSVTVSS
VL: DIVMTQAAPSVPVTPGESVSISCRSSKSLLHSNGNTYLYWFLQRPGQSPQLLIYRMSNLASGVPDRFSGSGSGTAFTLRISRVEAEDVGVYYCMQHLEYPLTFGAGTKLELKR
notes: mouse hybridoma antibody; also called m10A11; clone No. 10A11

IC50 (nM), Ca2+ influx by 200 nM hCCL1 (human CCR8 [4]): 0.23 nM
B14: 2-7B (antibody, V domains shown)
VH: EVQLVESDGGLVQPGRSLKLSCAASGFTFSDYYMAWVRQAPTKGLEWVATITYDVYSTYYRDSVKGRFTISRDNAKSTLYLQMDSLRSEDTATYYCARHGGDGYNSGNWFAYWGQGTLVTVSS
VL: DIVLTQSPALAVSLGQRATISCRASQSVSISRYNIMHWYQQKPGQQPKLLIYRASNLASGIPARFSGSGSGTDFTLTINPVQADDIATYYCQQSRESPPTFGGGTKLELKR
